Biological target: the molecule itself
Test: non-reducing SDS-PAGE with immunoblot

B1: His-tagged human recombinant peroxiredoxin 1 with Cys83 changed to Ser83 (natural protein)
chain: MSSGNAKIGHPAPNFKATAVMPDGQFKDISLSDYKGKYVVFFFYPLDFTFVCPTEIIAFSDRAEEFKKLNCQVIGASVDSHFSHLAWVNTPKKQGGLGPMNIPLVSDPKRTIAQDYGVLKADEGISFRGLFIIDDKGILRQITVNDLPVGRSVDETLRLVQAFQFTDKHGEVCPAGWKPGSDTIKPDVQKSKEYFSKQK
B1 was tested, and the “stoichiometry N” value was 2.
